Test [1] concerns the target CTD At ProXp-ala (Arabidopsis thaliana). As to the kind of experiment: SEC-MALS; Superdex 200 Increase 10/300 GL in 50 mM Hepes pH 6.8, 30 mM KCl, 2 mM DTT, 1 mM MgCl2; 100 μl of 3 mg/ml WT, 6 mg/ml ΔCTD or 1.5 mg/ml CTD injected; self-association. (In general: SEC sorts molecules by how far they enter the pores of the column.)
The target of test [2] is wildtype Arabidopsis thaliana (At) ProXp-ala (Arabidopsis thaliana). The test is described as above.

Several values for one entry are separate records, joined by “and”; a condition that tells them apart may be missing. Identical values can stand only once.

Broadly, the stoichiometry N is a count of units in the complex or per binding partner. Take CTD At ProXp-ala (domain or fragment): the stoichiometry N in test [1] was 2 and 4.

As to “wildtype Arabidopsis thaliana (At) ProXp-ala (enzyme)”, the stoichiometry N in test [2] worked out at 2.

The values above are taken from article PMC9425024.
